The assay addresses microtubules preformed from purified tubulin (taxol-stabilized) (UniProt Q6B856). As to the kind of experiment: co-sedimentation.

In turn, purified recombinant Flag-tagged Dp260 yielded a stoichiometry N (α-β tubulin heterodimers per Dp260) of 1.4.

The values are drawn from PMC2728405.
